Data reported in article PMC11408749.

Tests used:
[1] = target: DNMT3BΔ214 (residues 215–853) D817G (human) (UniProt Q9UBC3)
[2] = target: DNMT3BΔ214 (residues 215–853) D817G (human) (UniProt Q9UBC3); assay: AUC; sedimentation velocity, 40,000 rpm, 15 h, 20 C; 20 mM Tris-HCl pH 8.0, 300 mM NaCl, 1 mM TCEP, 5% glycerol; WT DNMT3BΔ214-3L at 2.5, 5.0 and 6.25 uM, mutant complexes at 5 uM; c(s) model in SEDFIT
[3] = target: DNMT3BΔ214 (residues 215–853) H814R (human) (UniProt Q9UBC3)
[4] = target: DNMT3BΔ214 (residues 215–853) H814R (human) (UniProt Q9UBC3); assay: AUC; sedimentation velocity, 40,000 rpm, 15 h, 20 C; 20 mM Tris-HCl pH 8.0, 300 mM NaCl, 1 mM TCEP, 5% glycerol; WT DNMT3BΔ214-3L at 2.5, 5.0 and 6.25 uM, mutant complexes at 5 uM; c(s) model in SEDFIT
[5] = target: DNMT3BΔ214 (residues 215–853) V818M (human) (UniProt Q9UBC3)
[6] = target: DNMT3BΔ214 (residues 215–853) V818M (human) (UniProt Q9UBC3); assay: AUC; sedimentation velocity, 40,000 rpm, 15 h, 20 C; 20 mM Tris-HCl pH 8.0, 300 mM NaCl, 1 mM TCEP, 5% glycerol; WT DNMT3BΔ214-3L at 2.5, 5.0 and 6.25 uM, mutant complexes at 5 uM; c(s) model in SEDFIT

DNMT3BΔ214 (residues 215–853) D817G (from UniProt Q9UBC3 215-853) (domain or fragment)
MTase activity of the DNMT3BΔ214-3L complex (MTase-Glo, 0.2 uM complex, 36-bp dsDNA), percent of the WT complex [1]: 5.43 % of WT | percent of the population as hetero-tetramer (168 kDa peak, DNMT3B dimerised) [2]: 4.9%

DNMT3BΔ214 (residues 215–853) H814R (from UniProt Q9UBC3 215-853) (domain or fragment)
MTase activity of the DNMT3BΔ214-3L complex (MTase-Glo, 0.2 uM complex, 36-bp dsDNA), percent of the WT complex [3]: 1.09 % of WT | percent of the population as hetero-tetramer (168 kDa peak, DNMT3B dimerised) [4]: 1.5%

DNMT3BΔ214 (residues 215–853) V818M (from UniProt Q9UBC3 215-853) (domain or fragment)
MTase activity of the DNMT3BΔ214-3L complex (MTase-Glo, 0.2 uM complex, 36-bp dsDNA), percent of the WT complex [5]: 35.9 % of WT | percent of the population as hetero-tetramer (168 kDa peak, DNMT3B dimerised) [6]: 28.3%
